According to publication PMC2193676:

Biological target: biotinylated K^d-SYIPSAEK(ABA)I (H-2K^d heavy chain, human β2-microglobulin, photoreactive PbCS(ABA) peptide) (not stated | human | Plasmodium berghei)
Assay: SPR

Question: For “soluble CD8αβ (extracellular portions of murine CD8α and CD8β fused to leucine zipper units) (complex)”, which Kd is on record?
Answer: 99 µM
